Data on seven molecules can be found in patent US20120020878A1, “FUSOGENIC PROPERTIES OF SAPOSIN C AND RELATED PROTEINS AND PEPTIDES FOR APPLICATION TO TRANSMEMBRANE DRUG DELIVERY SYSTEMS” (CHILDREN'S HOSPITAL MEDICAL CENTER, priority 2008, published 2012).

One assay concerns tumors. The assay is described as follows: Tumor imaging experiments with SapC peptide nanovesicles. In kind it is in vivo, mice. Conditions: peptide in phospholipid (e.g., DOPS) nanovesicles. From the text:
The nanovesicles are stable and relatively uncomplicated to make. […] For example, our fluorophore-nanovesicles offer a rapid and precise imaging method for seeing and measuring the change in tumor size of living mice. The tissue-homing, imaging nanovescicles of the present invention enable the researchers and physicians to determine the location and size of a broad range of tumors, including hidden, metastatic tumors.
Several saposin C peptides were synthesized to test their activity in the nanovesicles. […] In one embodiment, the peptide comprises one of more sequences selected from the groups MCS, LCS, and VCS within the peptide sequence. In certain embodiments, amino acids, such as Lys or Cys, are required for the tumor-homing effect.

A short description of assay [1]: Fusion mechanism study with preformed saposin C-PS(18:1,1) liposome complexes. On the procedure: Protein conformational changes are thought to play a role in protein-mediated membrane fusion. This fusion mechanism is evaluated using saposin C-dependent membrane fusion. First, saposin C-PS(18:1,1) liposome complexes are formed. In this saposin C-anchored membrane, protein conformation is altered. This complex is stable from pH 3 to 10, and in low concentrations of SDS solution.
Since the Trp in saposin C(0W) is embedded inside of lipid bilayer, the change of its signal is indicative of that the surrounding environment of Trp has been changed. After about 20 to 30 ms, Trp fluorescence signal decreases to the starting level. […] Shortly after this, the signal drops back to starting level signaling on end of the fusion process. […] Therefore, a conformational change of saposin C upon lipid binding is […] for its fusogenic activity.

A short description of assay [2]: Stopped-flow Trp fluorescence of saposin C/liposome complex formation. In kind it is binding. Conditions: PS(18:1,1) or BPS vesicles. From the text:
To investigate temporal and spatial interactions of saposins and liposomal membrane, fluorescence stopped-flow and quenching approaches are used with Trp as the intrinsic fluorescence probe of the saposins. These experiments allow identification of regional interactions between saposins and lipid bilayers, and also the kinetics of their binding.
This binding induces change is lipid-concentration dependent and requires at least one unsaturated fatty acid chain. To evaluate the kinetics of this interaction, stopped-flow experiments are conducted the change in fluorescence during saposin C/liposome complex formation is monitored. When saposin C(0W) is mixed with PS(18:1,1) or BPS vesicles, fluorescence of Trp is increased, but the time course of this change is undetectable due to limitation of the machine's capability. Apparently, the interaction of saposin C and unsaturated PS containing membranes occurs within at least 10 ms.

Assay [3] can be described thus: Vesicle size change determination (N4 plus submicron particle sizer). From the text:
The amino acid residues 51-67 are necessary, but not sufficient, for its optimal enzymatic activation function. The disulfide structure and conformational alteration of saposin C upon lipid binding are also required for this activity. Three approaches are used for this study: (1) stopped-flow monitoring reduction of self-quenching resulting from fusion of fluorescence probe-containing vesicle with non-fluorescent vesicle induced by saposin C; (2) monitoring the lipid vesicle size changes upon addition of saposin C to vesicles, the size distribution as determined using N4 plus submicron particle sizer (Coulter Co.); (3) monitoring intrinsic fluorescence of Trp-saposin C change during liposomal fusion.
Electron microscopy (EM) is used for vesicle fusion analysis, since the size of fused vesicles is bigger than those of non-fused. N4 plus submicron particle size is used to estimate particle sizes in the range of 3 nm to 3 um since most liposomes fit in this range. Sonication conditions with a cup sonicator give mono-dispersed BPS-liposomes with ˜200 nm in size. Upon addition of saposin C, these vesicles change to a larger size up to 2-3 um. The size increase is related to vesicles fusion as shown by the above dequenching experiments.
Saposin C promotes the size changes at ˜50 nM concentration. To define the regions responsible for this fusion property, peptides containing only 50% of the NH2-terminal or 50% of the COOH-terminal halves in saposin C are tested. Both peptides show fusion activity.

The subject of assay [4] is cultured mouse cortical and hippocampal neurons. Description: Transport into cultured neurons. Type of assay: cell-based. The following applies: facilitated by complexes with DOPS liposomes. On the procedure:
Saposin C can be transported into endosomal and lysosomal compartments using saposin-C liposomes containing long-chain anionic phospholipids. This method can be used for the treatment of neurological diseases including, for example, those in which MVB accumulation contributes to pathology and progression of disease.
Primary Cortical Neuron Cultures—Cortical neurons are cultured in serum-free Neuroblasal medium with B27 supplements as described by Whitmarsh et al.^44 Take out E16 mouse embryos, cut the head and place them into ice-cold Ca/Mg-free Hank Balance Salt Solution (HBSS) with papain (1 mg/ml). The brain is dissected out and place scalpel along the dorsal midline between the two cerebral hemispheres but slightly deviate towards to the side as it cut. This will give a clean cerebral cortex. Peel out the meninges gently without touching the medial side of the cortex where the hippocampus is located. Cut out the cortex with curved fine surgical scissors and collect them in ice-cold HBSS. The cortical tissue is replaced in papain HBSS solution for 15-20 minutes at room temperature to soften up the tissues. Transfer them to papain-inhibitor solution for another 5 minutes at room temperature and finally back to 2 ml ice-cold HBSS. Fisherbran 12-546 (18CIR-2) coverglasses in 12-well plate are coated with PEI containing laminin overnight. […]

A further assay concerns the target T1, acid β-glucosidase (Homo sapiens, UniProt P04062).
T1 sequence (P04062 40-536): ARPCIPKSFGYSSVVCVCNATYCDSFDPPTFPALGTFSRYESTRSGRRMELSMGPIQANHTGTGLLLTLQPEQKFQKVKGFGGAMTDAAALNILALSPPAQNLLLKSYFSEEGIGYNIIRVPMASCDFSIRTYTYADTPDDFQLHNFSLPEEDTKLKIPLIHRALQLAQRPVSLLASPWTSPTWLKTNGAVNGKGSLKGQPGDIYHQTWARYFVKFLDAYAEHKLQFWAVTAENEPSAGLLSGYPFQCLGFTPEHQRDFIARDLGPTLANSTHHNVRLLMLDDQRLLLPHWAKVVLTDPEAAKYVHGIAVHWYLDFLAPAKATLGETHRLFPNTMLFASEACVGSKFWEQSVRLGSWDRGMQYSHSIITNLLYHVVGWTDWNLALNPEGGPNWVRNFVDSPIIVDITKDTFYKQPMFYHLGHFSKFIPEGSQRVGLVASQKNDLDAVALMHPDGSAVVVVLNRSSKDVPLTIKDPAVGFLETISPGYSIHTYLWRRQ
Description: Activation of acid β-glucosidase in liposomal reconstitution system. Type of assay: biochemical. On the procedure: Functional saposins were overexpressed in BL21(DE3) cells using a pET 21a series vector. Following IPTG induction at 37° C. or 30° C., large amounts of saposins containing His•Tag were found in the soluble fraction of the disrupted cells. These were conveniently purified to electrophoretic homogeneity on nickel-loaded columns. Alternatively, saposins without His•Tag were generated by introducing a stop codon after protein coding region, and then purified using immuno-affinity columns with T7-taq monoclonal antibody. […] Circular dichroism spectra, light scattering, and ES_MS analyses were used to evaluate the physical properties of the purified saposins, such as aggregation status and molecular weight. Trp-saposins without His•Tag were also generated for necessary control experiments. The functional integrity of recombinant saposin C is determined using delipidated and homogenous acid β-glucosidase in a liposomal reconstitution system and in neuritogenic assays. Recombinant saposin B function is determined using a sulfatide binding assay.

Assay [5] is described as follows: R18 dequenching stopped-flow membrane fusion assay. Conditions: R18-labeled and unlabeled PS(18:1,1) vesicles. From the text:
Fluorescence probes have been widely used to determine membrane fusion, such as fluorescence dequenching, and fluorescence resonance energy transfer (FET), and can be used for quantitative and kinetics analyses. The dequenching approach is used to investigate saposin C's fusogenic activity. Octadecyl rhodamine B (R18) is selected as fluorescence probe and is entrapped in internal aqueous compartment of liposomal vesicles by co-sonication with BPS or PS(18:1,1).
Fluorescence increase (dequenching) of R18 occurs upon R18 concentration decreases. After non-labeled and labeled vesicles fuse, the R18 concentration is diluted, resulting in an increase in intensity of fluorescence. R18-labeled vesicles (lipid:R18=96:4, mol:mol) are mixed with the same lipid vesicles without fluorescence probe. Stopped-flow assays are conducted to quickly mix these vesicles with saposin C or Ca^2+ ion. Time-trace curves are generated for kinetic analysis.

Consider EKEILDAFDKMCSKLPK [Saposin E24-K41], for which the tumor-homing function result with tumors is reported as “optimal tumor-homing function”.
In the case of “EVCEFLVKEVTKLIDNNKTEKEILDAFDKMCSKLP [Saposin E6-P40, SapC peptide E6-P40]”, the tumor-homing function result in the assay on tumors is listed as “tumor-homing function”.
In the case of FDKMCSKLPK [F32 to K41], the tumor-homing function result with tumors is recorded as “tumor-homing function”.
On the same count and under the same terms, under “KSLSEECQEVVDTYGSSILSILLEEVSPELVCSMLHLCSG [Saposin K41-G80, SapC peptide K41-G80]” stands “tumor-homing function”; under “SPELVCSMLHLCSG [Saposin S67-G80, SapC peptide S67-G80]”, “tumor-homing function”.

B1: Saposin C: saposin C (SapC, a small lysosomal protein, 80 AA); recombinant, produced in E. coli (protein)
chain: SDVYCEVCEFLVKEVTKLIDNNKTEKEILDAFDKMCSKLPKSLSEECQEVVDTYGSSILSILLEEVSPELVCSMLHLCSG
modifications: left off: small tags and cut ends
notes: saposin C (SapC, a small lysosomal protein, 80 AA); recombinant, produced in E. coli
As for B1, the “fusogenic activity when bound to lipid membrane” value in assay [1] was “retains the fusogenic activity”. Further, the “time within which interaction with unsaturated PS containing membranes occurs” value in assay [2] is given as at most 10 ms. Also, the “concentration that promotes the size changes” value in assay [3] is about 50 nM. Moreover, the “vesicle size upon addition of saposin C” value in assay [3] (mono-dispersed BPS-liposomes of ˜200 nm before addition) is listed as 2-3 um. In addition, the vesicle size change entry was “enlarges vesicle size” in assay [3] (pH 4.7, 10 min period) and “not” in assay [3] (pH 7.4, 10 min period). Moreover, the transport into neurons entry in assay [4] was “transported into the cultured mouse cortical and hippocampal neurons”. In addition, the “activation of acid β-glucosidase” value in the assay with acid β-glucosidase (purified recombinant protein) was “excellent activation”. Also, the “kinetics of induced membrane fusion” value in assay [5] was “the same kinetics as those with Ca^2+”.

B2: saposin C(S37W): saposin C with a Trp at residue 37 (i.e., in the middle) (protein, UniProt P07602 311-390, looked up, variant S37W)
Saposin-C: SDVYCEVCEFLVKEVTKLIDNNKTEKEILDAFDKMCWKLPKSLSEECQEVVDTYGSSILSILLEEVSPELVCSMLHLCSG
modifications: Saposin-C
Take B2: the “effect of Trp substitution on activation properties” value in the assay with acid β-glucosidase was “no effect”.
